{
  "source": "patent US20060287229A1",
  "about": "“Novel CD40 variants” (priority 2004, published 2006)",
  "key": {"[1]": {"test_system": "RANTES secretion via the CD40-CD154 pathway", "experiment": "RANTES cell assay (HPMC cells overlaid with mouse fibroblasts/CD154-mouse fibroblasts, ELISA RANTES test)", "format": "cell-based, human", "settings": "for level of cytokine RANTES secretion (summary statement): human peritoneal cells plus mouse fibroblasts expressing CD154 ligand; for dose response of inhibition of RANTES secretion (in words): FIG. 18G: CD154 ligand present, high cell number 10,000", "description": "Skipping 5 protein was administered to a mixture of human peritoneal cells (HPMC cells), which express the CD40 receptor on their membrane, and mouse fibroblasts transfected to express the CD154 ligand. The ability of the soluble skipping 5 protein to compete with the CD40 membrane-bound receptor for binding to the CD154 ligand presented on the mouse fibroblasts was thus tested. This ability was measured by determining the resultant level of the cytokine RANTES, which is a cytokine indicative of T cell activation, as compared to when a positive control of interferon (which raises the level of RANTES via a CD40-related pathway) was administered alone.\nHPMC cells were grown in M199+10% FCS (Biological Industries, Bet Ha'emek, Israel), trypsinized (using trypsine from Biological Industries, Bet Ha'emek, Israel, 5 ml/75 cm^2 cell culture flask), and recultured into 96-well plates. Cell should reach at least 80% confluence before further use.\nMouse fibroblasts/CD154-mouse fibroblasts were grown in DMEM+10% FCS (Biological Industries). Cells were trypsinized, pelleted (5 min 500 at rpm), counted (½ vol cells+½ vol trypan blue) and resuspended in M199+10% FCS. Cells were then diluted (10,000 or 5000 cells per ml).\nCD40 proteins/antibodies were prepared in various concentrations in PBS according to the desired dose response/treatment (volume of 1 reaction should not exceed 20 microliters), followed by adding the same volume of PBS to the negative and positive controls.\nThe CD40 protein was added to 100 microliters of mouse fibroblasts or CD154-mouse fibroblasts in eppendorf tubes (final volume dependant on duplicates/triplicates) and incubated at R.T for 1 h at 200 rpm (rotation during incubation)\nDuring this incubation time the HPMC were prepared, by removing medium and washing cells twice, and adding 100 microliters of fresh M199+10% FCS with or without 100 U/ml IFN (PeproTech, 50U/μl).\nThe CD40 L cells mixtures were overlaid on the HPMC (110 ul/well) and incubated O.N (at 37° C., 5% CO2).\n100 microliters were removed from supernatant and placed into new 96 well plates, followed by diluting the samples 1/10 in M199+10% FCS and using diluted samples for the ELISA RANTES test.\nThe cells in the experiment plate were checked for viability."}, "[2]": {"test_system": "K562 cells", "experiment": "RT-PCR of CD40 splice forms in K562 cells treated with etoposide", "format": "cell-based", "settings": "20 μM Etoposide, various time intervals", "description": "Samples of RT reactions of K562 treated with etoposide were prepared and used for PCR using CD40 primers (35 cycles). Etoposide (Sigma) is known as double-stranded DNA breakage and apoptosis inducing agent. The RT reactions were checked before the analysis to exclude possible genomic contamination and to ensure similar cDNA concentrations in the different samples, using quantitation with GAPDH (not shown)."}, "[3]": {"test_system": "K562 cells", "experiment": "Caspase activation in K562 cells (immunoblot with anti cleaved PARP antibody)", "format": "cell-based", "settings": "25 μM etoposide, 17 hrs", "description": "For this purpose K562 cells were treated with 25 μM etoposide for 17 hrs, and the activation of caspases, one of the hallmarks of apoptosis, was measured. To measure caspase activation, the cells were lysed, immunoblotted and PARP, a known substrate for caspase-3, was probed using anti cleaved PARP antibody (Cell Signaling, Beverly, Mass.)."}, "[4]": {"molecular_target": "T1, human CD154 (Homo sapiens, UniProt P29965)", "T1 construct": "stably transfected with full length human CD154; expressed in transfected cells; host or cells: mouse fibroblasts, stably transfected", "T1 sequence (P29965 1-261)": "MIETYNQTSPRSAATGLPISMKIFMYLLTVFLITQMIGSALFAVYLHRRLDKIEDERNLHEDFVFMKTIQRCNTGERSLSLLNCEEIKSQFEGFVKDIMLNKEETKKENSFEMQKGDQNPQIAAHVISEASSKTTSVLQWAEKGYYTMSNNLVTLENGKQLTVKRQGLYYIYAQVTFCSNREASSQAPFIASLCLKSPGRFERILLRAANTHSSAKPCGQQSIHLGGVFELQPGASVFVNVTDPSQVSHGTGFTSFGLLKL", "experiment": "FACS analysis of sCD40 binding to mouse fibroblasts expressing human CD154", "settings": "Fc tagged proteins, 1-50 μg/ml, 4° C., 60 min; mouse fibroblasts stably transfected with full length human CD154", "description": "10^6 mouse fibroblasts (stably transfected with full length human CD154) were incubated with either the known CD40 soluble variant, sCD40 WT (panel C, FIG. 17), the variant CD40-skipping 6 (panel A, FIG. 17) or the variant CD40-skipping 5 (panel B, FIG. 17). All CD40 variants were Fc tagged, and present at a concentration of 1-50 μg/ml at 4° C. for 60 min in total volume of 100 μl (0.5×10^6 cells). […] Analysis was performed using BD FACsCalibur. Panel E in FIG. 17 summarizes the mean fluorescence shift, as plotted versus various concentrations of CD40 protein.\nBriefly, the FACS protocol was performed as follows. Mouse fibroblasts were trypsinized, and washed twice in PBS; cells were centrifuged at 1500 rpm for 10 min between washes. Next, the cells were re-suspended in FACS buffer (0.2% BSA and 0.02% sodium azide diluted 1/10 in PBS) to give 5-10×10^6 cells mL. Cells were placed in FACS test-tubes at a volume of 100 or 200 microliters per tube. […]\nNext, 2 μL (1:50) anti CD40 non-blocking antibody (EA-5 mouse IgG1 PE-conjugated, obtained from Calbiochem) or controls (same isotype PE conjugated) were added to the tubes, and incubated for 30 min at 4° C. […] Next, 0.5 mL PBS was added to tubes, which were read in a FACS machine (BD FACSCalibur). […]\nFor this experiment, the controls included performing parallel assays with: mouse fibroblasts not expressing hCD154; non-relevant Fc (EA5, which is a mouse anti-CD40 antibody, see Malmborg Hager et al., Scandinavian J. 1 mm. 57:517-524 (2003) or non-Fc tagged proteins or purification mock; known CD40 soluble protein; secondary Ab only and isotype control only (isotype refers to an antibody control, featuring the same type of antibody but one which is not able to bind CD40). The axes are as follows: Y=cell counts; X=log scale of fluorescence intensity. M=A marker placed above the peak of positively stained cells on the histogram plot which provide the statistics of the stained population."}, "[5]": {"settings": "FIG. 18C: HPMC cells plus mouse fibroblasts expressing CD154, with interferon"}, "[6]": {"settings": "FIG. 18E: fixed concentration 200 nM sCD40 protein, varying number of CD154+ mouse fibroblasts"}, "[7]": {"settings": "FIGS. 18A-C, complete system with INF and CD154 mouse fibroblasts"}},
  "note": "Entries after “also recorded” stand apart in the source; their conditions may differ.",
  "data": [
    {"molecule": "known truncation product derived from known CD40: known CD40 extracellular domain without transmembrane domain, a simple truncation product of known CD40 [reference compound]", "values": [
      {"measurement": "level of cytokine RANTES secretion (summary statement)", "setting": "[1]", "value": "decreased level"}
    ]},
    {"molecule": "COc1cc([C@@H]2c3cc4c(cc3[C@@H](O[C@@H]3O[C@@H]5CO[C@@H](C)O[C@H]5[C@H](O)[C@H]3O)[C@H]3COC(=O)[C@H]23)OCO4)cc(OC)c1O", "note": "[Etoposide]", "values": [
      {"measurement": "expression levels of secreted CD40 splice variant skipping exon 5 (RT-PCR)", "setting": "[2]", "value": "increase"},
      {"measurement": "known wild type CD40 expression levels (RT-PCR)", "setting": "[2]", "value": "decrease"},
      {"measurement": "cleaved PARP (caspase activation)", "setting": "[3]", "value": "appearance of a band in the expected size"}
    ]},
    {"molecule": "WT-sCD40-Fc: known CD40 extracellular domain (soluble, truncated) fused to Fc of IgG1 [reference compound]", "values": [
      {"measurement": "sCD40 binding to membrane CD154 (FACS)", "setting": "[4]", "value": "significant binding"},
      {"measurement": "Rantes level", "setting": "[1]; [5]", "value": "approximately 1000 pg/ml"},
      {"measurement": "inhibition of Rantes level", "setting": "[1]; [5]", "value": 50, "unit": "%"},
      {"measurement": "inhibition of RANTES secretion", "setting": "[1]; [6]", "value": "40-100%"},
      {"measurement": "dose response of inhibition of RANTES secretion (in words)", "setting": "[1]", "value": "inhibitory effect"},
      {"measurement": "effect on RANTES secretion (in words)", "setting": "[1]; [7]", "value": "inhibitory properties"}
    ]},
    {"molecule": "Skipping 6-sCD40-Fc: Fc-tagged CD40 skipping exon 6 variant (protein, left off: a dimerising Fc or GST, Fc-tagged CD40 skipping exon 6 variant) EPPTACREKQYLINSQCCSLCQPGQKLVSDCTEFTETECLPCGESEFLDTWNRETHCHQHKYCDPNLGLRVQQKGTSETDTICTCEEGWHCTSEACESCVLHRSCSPGFGVKQIATGVSDTICEPCPVGFFSNVSSAFEKCHPWTRSPGSAESPGGDPHHLRDPVCHPLGAGLYQKGGQEANQ", "values": [
      {"measurement": "sCD40 binding to membrane CD154 (FACS)", "setting": "[4]", "value": "significant binding"},
      {"measurement": "dose response of inhibition of RANTES secretion (in words)", "setting": "[1]", "value": "inhibitory effect"}
    ]},
    {"molecule": "Skipping 5-sCD40-Fc: CD40 skipping exon 5 splice variant fused downstream to the Fc chain of Immunoglobulin IgG1, expressed in baculovirus (protein, left off: a dimerising Fc or GST, CD40 skipping exon 5 splice variant fused downstream to the Fc chain of Immunoglobulin IgG1, expressed in baculovirus) EPPTACREKQYLINSQCCSLCQPGQKLVSDCTEFTETECLPCGESEFLDTWNRETHCHQHKYCDPNLGLRVQQKGTSETDTICTCEEGWHCTSEACESCVLHRSCSPGFGVKQIAVRPKTWLCNRQAQTRLMLSVVPRIG", "values": [
      {"measurement": "sCD40 binding to membrane CD154 (FACS)", "setting": "[4]", "value": "different properties"},
      {"measurement": "effect on RANTES secretion (in words)", "setting": "[1]; [6]", "value": "stimulatory effect"},
      {"measurement": "effect on RANTES level in the absence of CD154 (in words)", "setting": "[1]; FIGS. 18A and B: HPMC cells only or with untransfected mouse fibroblasts, Interferon dependent", "value": "agonistic effect; also recorded: agonistic properties"},
      {"measurement": "effect on RANTES secretion (in words)", "setting": "[1]; [7]", "value": "no inhibition"}
    ]},
    {"molecule": "Skip5: soluble CD40 splice variant lacking exon 5, SEQ ID NO:1, unique tail amino acids 136-160 (protein, listed as Homo sapiens) MVRLPLQCVLWGCLLTAVHPEPPTACREKQYLINSQCCSLCQPGQKLVSDCTEFTETECLPCGESEFLDTWNRETHCHQHKYCDPNLGLRVQQKGTSETDTICTCEEGWHCTSEACESCVLHRSCSPGFGVKQIAVRPKTWLCNRQAQTRLMLSVVPRIG", "values": [
      {"measurement": "dose response of inhibition of RANTES secretion (in words)", "setting": "[1]", "value": "did not cause any inhibition"},
      {"measurement": "level of cytokine RANTES secretion (summary statement)", "setting": "[1]; listed as CD40 skipping exon 5 variant", "value": "increased level"},
      {"measurement": "level of cytokine RANTES secretion (summary statement)", "setting": "[1]; listed as skipping 5", "value": "raise the level of secretion"}
    ]}
  ]
}
